From patent US20180072805A1

Biological target: recombinant human soluble Flt-1 (human) (UniProt P17948)
Test: competition ELISA, inhibition of human sFlt-1:VEGF binding

Sequence of UniProt P17948 (P17948 other isoform, or with tags, fused parts or gaps limits assumed): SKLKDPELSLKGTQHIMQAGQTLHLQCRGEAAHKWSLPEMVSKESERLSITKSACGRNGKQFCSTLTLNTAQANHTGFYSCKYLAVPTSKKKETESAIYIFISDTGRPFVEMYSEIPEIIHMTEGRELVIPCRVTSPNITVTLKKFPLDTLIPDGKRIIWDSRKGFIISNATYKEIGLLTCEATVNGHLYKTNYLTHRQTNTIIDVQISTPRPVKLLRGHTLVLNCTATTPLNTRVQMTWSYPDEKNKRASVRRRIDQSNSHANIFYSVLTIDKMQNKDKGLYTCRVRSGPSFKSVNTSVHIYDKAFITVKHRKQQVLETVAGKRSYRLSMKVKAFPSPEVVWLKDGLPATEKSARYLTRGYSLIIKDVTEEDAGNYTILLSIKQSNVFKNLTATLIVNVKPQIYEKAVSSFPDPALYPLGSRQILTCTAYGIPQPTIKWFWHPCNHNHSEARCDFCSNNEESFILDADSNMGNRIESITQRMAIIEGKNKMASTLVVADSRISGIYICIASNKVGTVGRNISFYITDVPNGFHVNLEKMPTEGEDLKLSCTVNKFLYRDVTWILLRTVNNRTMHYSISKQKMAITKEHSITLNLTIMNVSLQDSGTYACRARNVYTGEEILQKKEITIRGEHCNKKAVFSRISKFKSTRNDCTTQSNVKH

IC50 (read off the curve): 10 ng/mL
Substance: Abcam56300 (antibody)
